Reference: PMC6644640

Molecular target: prostate-specific antigen (PSA), enzymatically active, from human seminal fluid (human, UniProt P07288 25-261)
Assay: chemiluminescence sandwich assay on Si NW surface

Sequence of prostate-specific antigen (PSA), enzymatically active, from human seminal fluid (P07288 25-261): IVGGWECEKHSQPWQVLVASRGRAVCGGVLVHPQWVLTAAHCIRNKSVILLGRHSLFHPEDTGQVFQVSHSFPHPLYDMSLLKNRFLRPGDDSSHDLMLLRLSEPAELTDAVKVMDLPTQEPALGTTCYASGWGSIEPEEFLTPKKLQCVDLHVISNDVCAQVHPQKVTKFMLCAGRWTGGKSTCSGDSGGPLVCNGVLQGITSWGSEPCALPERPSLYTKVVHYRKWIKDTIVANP

AAAAATTAATTTCGAGCGGTAGTTTATCGAAA (ssDNA, 5'-H3N-(CH2)6) [nonspecific aptamer (32 nt control)]: no binding.
